Results from doi:10.1101/2024.06.13.598860, “The Mlh1-Pms1 endonuclease uses ATP to preserve DNA discontinuities as strand discrimination signals to facilitate mismatch repair”.

B1: intact 75-mer duplex (dsDNA)
DNA 1: TCGACCTAAGTCTAGCAGGTCACGTCACGCTACCGAATTCTGACTTGCTAGGACATCTTTGCTCACGTTGACCCA
DNA 2: TGGGTCAACGTGAGCAAAGATGTCCTAGCAAGTCAGAATTCGGTAGCGTGACGTGACCTGCTAGACTTAGGTCGA
B2: discontinuous 75-mer duplex (single strand break) (dsDNA)
DNA 1: B1 DNA 1
DNA 2: TGGGTCAACGTGAGCAAAGATGTCCTAGCAAGTCAGA
DNA 3: ATTCGGTAGCGTGACGTGACCTGCTAGACTTAGGTCGA

Tests used:
Mlh1-Pms1 [1] = molecular target: T1, Mlh1-Pms1 (Saccharomyces cerevisiae (yeast), UniProt P38920;P14242 1-769;1-873); test: EMSA; 120 mM NaCl, 0.5 mM ATP; 20 mM HEPES-KOH (pH not given), 0.1 mM DTT, 2 mM MgCl2, 40 ug/mL BSA, 6% glycerol; plasmid DNA 3.8 nM, 10 min room temperature, agarose EMSA; oligonucleotides plus 120 mM NaCl, 10 min 4 C, 4% PAGE; conditions: protein: recombinant, copies: 1;1, label: 5'-32P on CMO169
T1 sequence (P38920 whole entry, chain 1 of 2): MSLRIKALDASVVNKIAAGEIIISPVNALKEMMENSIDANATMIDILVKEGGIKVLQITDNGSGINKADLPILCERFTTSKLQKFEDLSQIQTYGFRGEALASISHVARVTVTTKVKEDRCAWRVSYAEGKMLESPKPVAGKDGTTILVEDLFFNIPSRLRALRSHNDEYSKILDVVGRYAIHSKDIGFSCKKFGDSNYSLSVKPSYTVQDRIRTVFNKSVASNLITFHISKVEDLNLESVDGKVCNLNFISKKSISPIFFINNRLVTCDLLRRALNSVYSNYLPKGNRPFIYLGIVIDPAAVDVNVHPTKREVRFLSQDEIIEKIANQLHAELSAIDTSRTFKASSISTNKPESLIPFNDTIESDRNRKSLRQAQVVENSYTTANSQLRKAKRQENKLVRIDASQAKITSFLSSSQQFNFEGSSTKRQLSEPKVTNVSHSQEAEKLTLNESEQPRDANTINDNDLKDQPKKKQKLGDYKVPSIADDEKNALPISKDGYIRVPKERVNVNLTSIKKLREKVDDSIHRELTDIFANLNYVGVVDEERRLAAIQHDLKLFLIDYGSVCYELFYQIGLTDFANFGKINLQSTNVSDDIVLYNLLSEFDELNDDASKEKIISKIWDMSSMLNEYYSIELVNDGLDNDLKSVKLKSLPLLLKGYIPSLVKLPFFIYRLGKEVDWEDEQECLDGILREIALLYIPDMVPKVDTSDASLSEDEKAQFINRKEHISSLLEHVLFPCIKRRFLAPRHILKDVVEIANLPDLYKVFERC
T1 sequence (P14242 whole entry, chain 2 of 2): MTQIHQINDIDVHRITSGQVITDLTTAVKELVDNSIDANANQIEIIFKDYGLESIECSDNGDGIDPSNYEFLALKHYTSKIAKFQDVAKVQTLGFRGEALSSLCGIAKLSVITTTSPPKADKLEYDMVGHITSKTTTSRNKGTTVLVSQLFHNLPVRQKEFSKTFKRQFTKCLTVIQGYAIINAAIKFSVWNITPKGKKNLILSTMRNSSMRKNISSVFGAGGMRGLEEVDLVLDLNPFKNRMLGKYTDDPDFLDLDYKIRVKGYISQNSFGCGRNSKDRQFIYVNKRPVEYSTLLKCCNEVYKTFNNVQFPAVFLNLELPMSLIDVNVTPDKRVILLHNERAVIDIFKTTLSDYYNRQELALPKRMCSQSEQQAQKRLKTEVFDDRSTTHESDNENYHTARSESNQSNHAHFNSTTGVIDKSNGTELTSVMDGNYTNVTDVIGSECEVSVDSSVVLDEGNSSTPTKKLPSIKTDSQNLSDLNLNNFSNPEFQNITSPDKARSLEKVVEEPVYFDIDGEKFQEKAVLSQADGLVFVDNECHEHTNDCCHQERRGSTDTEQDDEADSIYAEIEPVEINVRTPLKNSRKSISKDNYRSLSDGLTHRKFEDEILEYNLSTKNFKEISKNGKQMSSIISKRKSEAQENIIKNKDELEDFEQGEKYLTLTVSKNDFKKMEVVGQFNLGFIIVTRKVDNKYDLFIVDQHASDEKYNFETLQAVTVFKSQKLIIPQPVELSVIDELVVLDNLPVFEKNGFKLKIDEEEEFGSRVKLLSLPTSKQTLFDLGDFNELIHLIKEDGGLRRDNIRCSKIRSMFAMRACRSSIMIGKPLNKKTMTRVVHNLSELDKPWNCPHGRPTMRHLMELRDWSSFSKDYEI

Mlh1-Pms1 [2] = molecular target: T1, Mlh1-Pms1; test: EMSA; 120 mM NaCl, no ATP; 20 mM HEPES-KOH (pH not given), 0.1 mM DTT, 2 mM MgCl2, 40 ug/mL BSA, 6% glycerol; plasmid DNA 3.8 nM, 10 min room temperature, agarose EMSA; oligonucleotides plus 120 mM NaCl, 10 min 4 C, 4% PAGE; conditions: protein: recombinant, copies: 1;1, label: 5'-32P on CMO169
[3] = nicked duplex, blunt ends, 1:2 1:3, nick between strands 2 and 3

Binder | Kd (Mlh1-Pms1 [1]; blunt) [nM] | Kd (Mlh1-Pms1 [2]; blunt) [nM] | Kd (Mlh1-Pms1 [1]; [3]) [nM] | Kd (Mlh1-Pms1 [2]; [3]) [nM]
B1 | 79 ± 8 | 96 ± 20 | – | –
B2 | – | – | 77 ± 6 | 79 ± 3
